Fewer inactive variants are shown than the library holds.
B1: TPR 5TU (parent)
chain: GGAUCUUCUCGAUCUAACAAAAAAGACAAAUCUGCCACAAAGCUUGAGAGCAUCUUCGGAUGCAGAGGCGGCAGCCUUCGGUGGCGCGAUAGCGCCAACGUUCUCAACUAUGACACGCAAAACGCGUGCUCCGUUGAAUGGAGUUUAUCAUG

Variants of: B1
Assay: polymerase ribozyme fitness, log enrichment relative to wild type (log ratio); higher = more active; in vitro selection for triplet polymerase activity
How it was run: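 Libraries of mutants in each subunit of a heterodimeric triplet polymerase ribozyme were generated by PCR and transcribed. In triplicate, each went through one in vitro selection round: annealing with biotinylated primer, partner subunit and triplets; frozen incubation at −7 °C; gel excision of extended constructs; streptavidin-bead capture; RT-PCR. Fitness, taken from Illumina sequencing of input and output libraries, is the logarithm of a genotype's enrichment over wild-type enrichment, averaged across replicates with inverse-variance weights. The logarithm is base 2, and genotypes needed ≥10 input reads and ≥1 read per output to be kept.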

| Variant | polymerase ribozyme fitness (log ratio) |
| --- | --- |
| C69G A91G | -3.88 |
| C79G C85U | -4.04 |
| A73G C87U G92U A122U C131A | -4.1 |
| C69G G94A U104G | -1.19 |
| C76G C85U U139C | ≤ -4.2 |
| C76A C96U | -0.773 |
| A73G C75U U77C A89U G136A C149G | ≤ -4.2 |
| G74U A107G | ≤ -4.2 |
| C69U A115U C123U | -1.62 |
| C75U G84A U135A | -0.996 |
| C75U G83A | -0.0803 |
| C75U G83U | -3.08 |
| A73U G80A U134C | -1.91 |
| C76A C95U C96A A97G C114U A137C | ≤ -4.2 |
| A73C A106U A110C | ≤ -4.2 |
| C79U | -1.47 |
| C79G | -3.75 |
| C79A | -4.12 |
| G80A C87U | -0.519 |
| C72U G86A G100C C131A U135A | ≤ -4.2 |
| G80A C85G C116G | -2.05 |

| Variant | polymerase ribozyme fitness (log ratio) |
| --- | --- |
| C75G G92A C105G C114G U146C | ≤ -4.2 |
| A73G G88A G124C | ≤ -4.2 |
| G80C C87G C103G G143C | ≤ -4.2 |
| C76U G94U A115C C125U A147U | ≤ -4.2 |
| U78A C103G U134A | ≤ -4.2 |
| C79G G124A | -3.82 |
| G70C G94A | -3.61 |
| C72U C79A C85U | ≤ -4.2 |
| C76A A91G C114U | -3.98 |
| G80A C105U | 0.692 |
| A73G C93G | -2.73 |
| A73G C93U | -1.28 |
| C69A U134G | -3.35 |
| C76A A113C G141C U151A | ≤ -4.2 |
| C72A A147C | ≤ -4.2 |
| G70C C87A G140C | ≤ -4.2 |
| C72G U127C G143U U144G | ≤ -4.2 |
| A73G C125U | -0.349 |
| G80A G92U A97G | -0.375 |
| G70A C87U | -3.05 |
| G71A C93U | -2.94 |

| Variant | polymerase ribozyme fitness (log ratio) |
| --- | --- |
| C76U C103A G141C | -4.16 |
| A73U C75A A98U C114U C125A U135A | ≤ -4.2 |
| U77C G81A G86U G100A G133U | ≤ -4.2 |
| U77C U111A C131A | ≤ -4.2 |
| U78G G86C U102G C108U A119U G140U | ≤ -4.2 |
| C69U G126C | -0.197 |
| U78G C87A | ≤ -4.2 |
| G74C C93U G143U | ≤ -4.2 |
| C75U G141A | -0.767 |
| C69G G74U A89U A98U | -2.01 |
| C79A C93U A119G G133C | ≤ -4.2 |
| C79U G143U | -4.12 |
| U78G G117C | ≤ -4.2 |
| C76U U104G A106U G128U U151G | ≤ -4.2 |
| G71A C95U | -3.12 |
| C76A A119U | -0.979 |
| C76G G80U U82A G86U U104C G141C | ≤ -4.2 |
| C69G G143C | -4.1 |
| C72A C103A | ≤ -4.2 |
| C72U C85G C99G C114G | ≤ -4.2 |
| C76A A137U | -3.9 |

| Variant | polymerase ribozyme fitness (log ratio) |
| --- | --- |
| C72G U146G | ≤ -4.2 |
| G71A G92U | -2.6 |
| C76U C79U C85A G92C C132G | ≤ -4.2 |
| C69U A122U | -1.27 |
| C76A G83U C99U A122U | ≤ -4.2 |
| C72A C103G C118G U148G | ≤ -4.2 |
| C69A U102C | ≤ -4.2 |
| C69U C85U U148C | -2.71 |
| C79U G100A A115C | -1.13 |
| G80U G86U G100A | ≤ -4.2 |
| A73G U144G | 1.28 |
| A73G U144C | 0.137 |
| G81A C93A | -2.37 |
| C72U C87A A137C U139A | ≤ -4.2 |
| C76U G88A A91C | ≤ -4.2 |
| U78A C87U A91G A98C A120C U130G G141A | ≤ -4.2 |
| G71C G86U A91C G133A | ≤ -4.2 |
| G74U C87A C116A U151G | ≤ -4.2 |
| C79A U144A A147C | ≤ -4.2 |
| C76U C105U C116G | -1.03 |
| G74C G80C G92U C103G A106U | ≤ -4.2 |

Reference: the RNAGym collection of RNA variant scans (doi:10.1073/pnas.2313332121)
